Test results taken from paper PMC2925374, “Oligomerization of Uukuniemi virus nucleocapsid protein” (Virology Journal, 2010).
Values joined by “and” are separate entries in the source; they are usually repeats but may differ in a detail not shown here. Equal values may be shown once.

Molecular target: the molecule itself
Assay: two-hybrid; mammalian two-hybrid in HeLa cells: GAL4 DNA-BD (pM) and VP16 DNA-AD (pVP) fusions, pG5luc firefly luciferase normalised to Renilla luciferase, 24 h post-transfection; percent of the wt N-N interaction

| Protein | M2H % of interaction [%] |
| --- | --- |
| UUKV-N protein point mutant W19A, mammalian two-hybrid fusions (natural protein, Uukuniemi virus nucleocapsid (N) protein, 254 aa residues; Mutation introduced into both the DNA-BD and the DNA-AD fusion; no chain carries both domains; source: HeLa, transfected, mammalian two-hybrid fusions) MAMPENWVRFAIEISDAQAEEEEIREFINLFQYQGFDAAVVLSRIFELAKKADLSRDQMLRDIRALITLHLTRGNKLSSIEKRLSEEGKKEFALLKARYQLVDKAKEAADLTLSRIAIANAGLTCRILPQVVAHTAVTRSRMESLSADYPVCMMHNAFAGLIDETLPEDSIKALVDAHRLYLLEFSRTINVKHRGMEAKEILDANDSALQAGLASSFLTPSQKRAYLLSFKLVDGNGKVNKAVQQAATVLRSLI | > 100 |
| UUKV-N protein point mutant F10A, mammalian two-hybrid fusions (natural protein, Uukuniemi virus nucleocapsid (N) protein, 254 aa residues; Mutation introduced into both the DNA-BD and the DNA-AD fusion; no chain carries both domains; source: HeLa, transfected, mammalian two-hybrid fusions) MAMPENWVRAAIEISDAQWEEEEIREFINLFQYQGFDAAVVLSRIFELAKKADLSRDQMLRDIRALITLHLTRGNKLSSIEKRLSEEGKKEFALLKARYQLVDKAKEAADLTLSRIAIANAGLTCRILPQVVAHTAVTRSRMESLSADYPVCMMHNAFAGLIDETLPEDSIKALVDAHRLYLLEFSRTINVKHRGMEAKEILDANDSALQAGLASSFLTPSQKRAYLLSFKLVDGNGKVNKAVQQAATVLRSLI | 34 ± 4 |
| UUKV-N protein point mutant F31A, mammalian two-hybrid fusions (natural protein, Uukuniemi virus nucleocapsid (N) protein, 254 aa residues; Mutation introduced into both the DNA-BD and the DNA-AD fusion; no chain carries both domains; source: HeLa, transfected, mammalian two-hybrid fusions) MAMPENWVRFAIEISDAQWEEEEIREFINLAQYQGFDAAVVLSRIFELAKKADLSRDQMLRDIRALITLHLTRGNKLSSIEKRLSEEGKKEFALLKARYQLVDKAKEAADLTLSRIAIANAGLTCRILPQVVAHTAVTRSRMESLSADYPVCMMHNAFAGLIDETLPEDSIKALVDAHRLYLLEFSRTINVKHRGMEAKEILDANDSALQAGLASSFLTPSQKRAYLLSFKLVDGNGKVNKAVQQAATVLRSLI | 23 ± 5 |
| UUKV-N protein point mutant Y33A, mammalian two-hybrid fusions (natural protein, Uukuniemi virus nucleocapsid (N) protein, 254 aa residues; Mutation introduced into both the DNA-BD and the DNA-AD fusion; no chain carries both domains; also called negative control mutant; source: HeLa, transfected, mammalian two-hybrid fusions) MAMPENWVRFAIEISDAQWEEEEIREFINLFQAQGFDAAVVLSRIFELAKKADLSRDQMLRDIRALITLHLTRGNKLSSIEKRLSEEGKKEFALLKARYQLVDKAKEAADLTLSRIAIANAGLTCRILPQVVAHTAVTRSRMESLSADYPVCMMHNAFAGLIDETLPEDSIKALVDAHRLYLLEFSRTINVKHRGMEAKEILDANDSALQAGLASSFLTPSQKRAYLLSFKLVDGNGKVNKAVQQAATVLRSLI | > 100 |
| UUKV-N protein point mutant W7A, mammalian two-hybrid fusions (natural protein, Uukuniemi virus nucleocapsid (N) protein, 254 aa residues; Mutation introduced into both the DNA-BD and the DNA-AD fusion; no chain carries both domains; source: HeLa, transfected, mammalian two-hybrid fusions) MAMPENAVRFAIEISDAQWEEEEIREFINLFQYQGFDAAVVLSRIFELAKKADLSRDQMLRDIRALITLHLTRGNKLSSIEKRLSEEGKKEFALLKARYQLVDKAKEAADLTLSRIAIANAGLTCRILPQVVAHTAVTRSRMESLSADYPVCMMHNAFAGLIDETLPEDSIKALVDAHRLYLLEFSRTINVKHRGMEAKEILDANDSALQAGLASSFLTPSQKRAYLLSFKLVDGNGKVNKAVQQAATVLRSLI | > 100 |
| UUKV-N protein point mutant R251A, mammalian two-hybrid fusions (natural protein, Uukuniemi virus nucleocapsid (N) protein, 254 aa residues; source: HeLa, transfected, mammalian two-hybrid fusions) MAMPENWVRFAIEISDAQWEEEEIREFINLFQYQGFDAAVVLSRIFELAKKADLSRDQMLRDIRALITLHLTRGNKLSSIEKRLSEEGKKEFALLKARYQLVDKAKEAADLTLSRIAIANAGLTCRILPQVVAHTAVTRSRMESLSADYPVCMMHNAFAGLIDETLPEDSIKALVDAHRLYLLEFSRTINVKHRGMEAKEILDANDSALQAGLASSFLTPSQKRAYLLSFKLVDGNGKVNKAVQQAATVLASLI | 96 ± 11 |
| UUKV-N protein double mutant QQ244,245AA, mammalian two-hybrid fusions (natural protein, Uukuniemi virus nucleocapsid (N) protein, 254 aa residues; source: HeLa, transfected, mammalian two-hybrid fusions) MAMPENWVRFAIEISDAQWEEEEIREFINLFQYQGFDAAVVLSRIFELAKKADLSRDQMLRDIRALITLHLTRGNKLSSIEKRLSEEGKKEFALLKARYQLVDKAKEAADLTLSRIAIANAGLTCRILPQVVAHTAVTRSRMESLSADYPVCMMHNAFAGLIDETLPEDSIKALVDAHRLYLLEFSRTINVKHRGMEAKEILDANDSALQAGLASSFLTPSQKRAYLLSFKLVDGNGKVNKAVAAAATVLRSLI | > 100 |
| UUKV-N protein point mutant I24A, mammalian two-hybrid fusions (natural protein, Uukuniemi virus nucleocapsid (N) protein, 254 aa residues; Mutation introduced into both the DNA-BD and the DNA-AD fusion; no chain carries both domains; source: HeLa, transfected, mammalian two-hybrid fusions) MAMPENWVRFAIEISDAQWEEEEAREFINLFQYQGFDAAVVLSRIFELAKKADLSRDQMLRDIRALITLHLTRGNKLSSIEKRLSEEGKKEFALLKARYQLVDKAKEAADLTLSRIAIANAGLTCRILPQVVAHTAVTRSRMESLSADYPVCMMHNAFAGLIDETLPEDSIKALVDAHRLYLLEFSRTINVKHRGMEAKEILDANDSALQAGLASSFLTPSQKRAYLLSFKLVDGNGKVNKAVQQAATVLRSLI | 56 ± 12 |
| UUKV-N protein point mutant F27A, mammalian two-hybrid fusions (natural protein, Uukuniemi virus nucleocapsid (N) protein, 254 aa residues; Mutation introduced into both the DNA-BD and the DNA-AD fusion; no chain carries both domains; source: HeLa, transfected, mammalian two-hybrid fusions) MAMPENWVRFAIEISDAQWEEEEIREAINLFQYQGFDAAVVLSRIFELAKKADLSRDQMLRDIRALITLHLTRGNKLSSIEKRLSEEGKKEFALLKARYQLVDKAKEAADLTLSRIAIANAGLTCRILPQVVAHTAVTRSRMESLSADYPVCMMHNAFAGLIDETLPEDSIKALVDAHRLYLLEFSRTINVKHRGMEAKEILDANDSALQAGLASSFLTPSQKRAYLLSFKLVDGNGKVNKAVQQAATVLRSLI | > 100 |
| UUKV-N protein point mutant I14A, mammalian two-hybrid fusions (natural protein, Uukuniemi virus nucleocapsid (N) protein, 254 aa residues; Mutation introduced into both the DNA-BD and the DNA-AD fusion; no chain carries both domains; source: HeLa, transfected, mammalian two-hybrid fusions) MAMPENWVRFAIEASDAQWEEEEIREFINLFQYQGFDAAVVLSRIFELAKKADLSRDQMLRDIRALITLHLTRGNKLSSIEKRLSEEGKKEFALLKARYQLVDKAKEAADLTLSRIAIANAGLTCRILPQVVAHTAVTRSRMESLSADYPVCMMHNAFAGLIDETLPEDSIKALVDAHRLYLLEFSRTINVKHRGMEAKEILDANDSALQAGLASSFLTPSQKRAYLLSFKLVDGNGKVNKAVQQAATVLRSLI | 60 ± 18 |

Molecular target: the molecule itself
Assay: cross-linking; lysates of transfected COS-7 cells (PBS pH 7.4, freeze-thawed), 0.1 or 0.5 mM BS3, 30 min at room temperature, quenched with 50 mM Tris-HCl pH 7.5; 10% SDS-PAGE, immunoblot with rabbit antiserum against UUKV-N

| Protein | stoichiometry N |
| --- | --- |
| Uukuniemi virus nucleocapsid (N) protein, full-length wild type (pcDNA-UUKV-N) (natural protein, Uukuniemi virus nucleocapsid (N) protein, 254 aa residues; No tag is mentioned; detected with a rabbit antiserum against UUKV-N; also called UUKV-N protein; wt N protein; source: COS-7, transfected (pcDNA-UUKV-N), in lysate) MAMPENWVRFAIEISDAQWEEEEIREFINLFQYQGFDAAVVLSRIFELAKKADLSRDQMLRDIRALITLHLTRGNKLSSIEKRLSEEGKKEFALLKARYQLVDKAKEAADLTLSRIAIANAGLTCRILPQVVAHTAVTRSRMESLSADYPVCMMHNAFAGLIDETLPEDSIKALVDAHRLYLLEFSRTINVKHRGMEAKEILDANDSALQAGLASSFLTPSQKRAYLLSFKLVDGNGKVNKAVQQAATVLRSLI | 2 and 3 |
